To fix the notation:
B1: Hairpin Ribozyme (parent)
chain: GUCCUCUUUCACGUGCGCGUGAAAGAGAGAAGUGAACCAGAGAAACACACGUUGUGGUAUAUUACCUGGUA

This data set covers variants of B1. Nature of the data set: self-cleavage, relative activity (ratio to wild type); higher = more cleavage; co-transcriptional.
With U55C U58G, the self-cleavage worked out at 0.175.

Take A24U A35C: the self-cleavage worked out at 0.951.

For the variant A23U G27U, the self-cleavage stood at 0.289.

On to C6A U60C, for which the self-cleavage stood at 0.793.

For the variant G51A C65G, the self-cleavage came to 0.287.

As for U5C U63A, the self-cleavage is 0.104.

For the variant U20C G32U, the self-cleavage amounted to 0.157.

Consider A30U U62G, for which the self-cleavage stood at 0.108.

Turning to G29U G56U, the self-cleavage worked out at 0.143.

With A11G G34C, the self-cleavage was 1.3.

As for A43U A64U, the self-cleavage worked out at 0.266.

In the case of C66A G68U, the self-cleavage was 0.105.

Regarding U8A G68U, the self-cleavage came out at 0.172.

Turning to G42C A45C, the self-cleavage was 0.0604.

Turning to A22C G32C, the self-cleavage was found to be 0.106.

Regarding A11U A35C, the self-cleavage worked out at 0.86.

On to C4A A49U, for which the self-cleavage turned out to be 0.189.

As for G19C G57A, the self-cleavage was 0.174.

U14C G56A: the self-cleavage was found to be 0.143.

In the case of G68U A71G, the self-cleavage came to 0.253.

For G40U A43G, the self-cleavage turned out to be 0.134.

Consider U2A C18G, for which the self-cleavage turned out to be 0.212.

Take C65G U67C: the self-cleavage was 0.183.

As for A41U U58G, the self-cleavage was 1.02.

As for G13U A49C, the self-cleavage is 0.117.

Regarding U14G A30G, the self-cleavage came to 0.0762.

Consider G15C G25C, for which the self-cleavage came to 0.687.

As to G19A U55A, the self-cleavage turned out to be 0.29.

Consider U8C U55A, for which the self-cleavage stood at 0.16.

On to U9G G17C, for which the self-cleavage amounted to 0.379.

Regarding G21A A43G, the self-cleavage turned out to be 0.127.

Take A39G A71C: the self-cleavage stood at 0.303.

As for C6U U63C, the self-cleavage was 0.167.

Consider G27A U62C, for which the self-cleavage is 0.13.

Regarding A11G A31U, the self-cleavage was 0.0838.

As for G19C G42A, the self-cleavage was determined as 0.194.

Consider U9C A11G, for which the self-cleavage turned out to be 0.692.

Take A11U G51A: the self-cleavage came out at 0.799.

As to G27C G54C, the self-cleavage came out at 0.151.

Turning to G25A U63A, the self-cleavage was 0.108.

A41C A59U: the self-cleavage is 0.173.

On to A11C C65A, for which the self-cleavage was 0.896.

Regarding U20A A26U, the self-cleavage worked out at 0.611.

For the variant U5G G27U, the self-cleavage stood at 0.0644.

For U7C A61G, the self-cleavage was 0.164.

With A26U G29U, the self-cleavage worked out at 0.151.

As to A49C U53C, the self-cleavage stood at 0.27.

Consider G21U A22G, for which the self-cleavage was 0.736.

Consider A43G U53C, for which the self-cleavage is 0.107.

Take G21U U67C: the self-cleavage stood at 0.23.

As to A11U G32C, the self-cleavage is 0.144.

Regarding U5G C66U, the self-cleavage is 0.223.

Regarding C48U, the self-cleavage is 0.158.

Consider G57A A71U, for which the self-cleavage worked out at 0.187.

U20C G51U: the self-cleavage was 1.07.

In the case of U2A A31G, the self-cleavage is 0.334.

In the case of A47G U70A, the self-cleavage is 0.204.

As for G29U U53A, the self-cleavage was found to be 0.103.

U7G A43U: the self-cleavage is 0.123.

As for A23U A43G, the self-cleavage came out at 0.204.

As to C16U A36G, the self-cleavage amounted to 1.34.

G17A A26C: the self-cleavage is 0.75.

For A23C C66U, the self-cleavage was determined as 0.448.

Take C3G G19C: the self-cleavage worked out at 0.229.

For the variant C46G U58C, the self-cleavage amounted to 0.308.

Consider U52A A61C, for which the self-cleavage was 0.256.

In the case of A30C A35G, the self-cleavage came out at 0.217.

Regarding A35G A44C, the self-cleavage came out at 0.211.

For the variant G19A A39G, the self-cleavage amounted to 0.274.

For the variant C3G A35C, the self-cleavage was determined as 0.36.

For U55G U63G, the self-cleavage came out at 0.

In the case of A39G A47U, the self-cleavage stood at 0.134.

With G32A C66U, the self-cleavage came to 0.177.

Turning to C16G U67C, the self-cleavage stood at 0.155.

Consider U33C C38G, for which the self-cleavage is 0.123.

On to A61U C65G, for which the self-cleavage was 0.193.

Regarding A44U U60A, the self-cleavage stood at 0.239.

Turning to A11G U60G, the self-cleavage came to 0.565.

Turning to U14C G40A, the self-cleavage is 0.326.

A41U C66A: the self-cleavage amounted to 0.271.

Regarding C3U C37A, the self-cleavage worked out at 0.315.

As to A39U G69A, the self-cleavage was 0.157.

In the case of C6U G15U, the self-cleavage amounted to 0.814.

For U52G G56U, the self-cleavage stood at 0.131.

Consider A11G C50U, for which the self-cleavage turned out to be 0.321.

Take U8A G13C: the self-cleavage is 0.687.

In the case of G15C A31G, the self-cleavage came out at 0.692.

As for G13A C16U, the self-cleavage worked out at 1.03.

For A44G A61U, the self-cleavage was 0.189.

Consider U20C U58A, for which the self-cleavage was found to be 0.673.

As to G17A A71G, the self-cleavage was 1.04.

On to C3A U14C, for which the self-cleavage stood at 0.677.

As to U60C U63C, the self-cleavage amounted to 0.314.

Consider C16G A39C, for which the self-cleavage is 0.374.

With A41U C46A, the self-cleavage was determined as 0.0476.

For the variant G25U G34C, the self-cleavage came out at 1.13.

As for U55A U62G, the self-cleavage was 0.0995.

For A36C C65A, the self-cleavage was 0.52.

Regarding C4A G34C, the self-cleavage worked out at 0.676.

Regarding C6A G15C, the self-cleavage stood at 0.586.

Take G15A A45U: the self-cleavage is 0.204.

As to U7G C48A, the self-cleavage came to 0.142.

A35G A47G: the self-cleavage was found to be 0.142.

In the case of C4A U53C, the self-cleavage amounted to 0.206.

As to A22C A36C, the self-cleavage turned out to be 0.559.

U55C A59U: the self-cleavage amounted to 0.239.

As for C16G G32A, the self-cleavage came to 0.179.

Regarding A35G A71U, the self-cleavage amounted to 0.837.

Consider U7G C50A, for which the self-cleavage amounted to 0.167.

Take U7G C50U: the self-cleavage was 0.371.

As for A49G G54C, the self-cleavage came out at 0.277.

Regarding C50G A59C, the self-cleavage stood at 0.221.

As for U20C A30U, the self-cleavage was determined as 0.0821.

For A59G U60A, the self-cleavage was 0.164.

On to U7C G34U, for which the self-cleavage stood at 1.32.

With G51C, the self-cleavage was determined as 0.876.

As to G42U U53A, the self-cleavage is 0.298.

For U63C G68A, the self-cleavage was determined as 0.192.

Turning to C4A C16U, the self-cleavage came out at 0.197.

On to A31U A41G, for which the self-cleavage worked out at 0.0486.

In the case of A44U C65G, the self-cleavage came out at 0.178.

In the case of A44C G69A, the self-cleavage came out at 0.121.

As for G42C A59G, the self-cleavage amounted to 0.195.

In the case of G19C A61U, the self-cleavage turned out to be 0.25.

As for G19C A61G, the self-cleavage turned out to be 0.144.

Regarding C37U A45U, the self-cleavage came to 0.11.

With G15C A41C, the self-cleavage was 1.28.

In the case of C10U U20C, the self-cleavage turned out to be 0.722.

Regarding U14G A22C, the self-cleavage is 0.75.

On to C4G G21C, for which the self-cleavage stood at 0.231.

For U7G U20G, the self-cleavage came out at 0.453.

G21A G57A: the self-cleavage came to 0.192.

For the variant A22U U70G, the self-cleavage is 0.674.

As to G15C U60G, the self-cleavage was determined as 0.466.

In the case of C16U A44G, the self-cleavage came to 0.101.

Take C4A G29A: the self-cleavage stood at 0.119.

For the variant A47U U55C, the self-cleavage was 0.203.

A11C C66A: the self-cleavage worked out at 0.317.

As to C18U A59G, the self-cleavage came to 0.148.

On to C6A C12A, for which the self-cleavage worked out at 0.52.

With C12A C18U, the self-cleavage is 0.834.

Take A26U G57U: the self-cleavage was found to be 0.143.

For the variant A64C U67C, the self-cleavage worked out at 0.151.

For C4U G54U, the self-cleavage was determined as 0.198.

On to U8C C50A, for which the self-cleavage came out at 0.144.

Regarding U52A U70A, the self-cleavage is 0.825.

For A44U U67C, the self-cleavage is 0.099.

G17U A22C: the self-cleavage is 0.703.

In the case of G1U C46U, the self-cleavage is 0.0565.

With G13A U52G, the self-cleavage turned out to be 0.5.

On to C46A G56A, for which the self-cleavage was 0.167.

Consider C38A C48U, for which the self-cleavage amounted to 0.135.

With C3G A36G, the self-cleavage is 0.255.

Take G32A U53C: the self-cleavage came to 0.243.

As for G25A C37A, the self-cleavage was 0.199.

On to A23C C38U, for which the self-cleavage is 0.398.

C4A U63C: the self-cleavage is 0.115.

Regarding C6G G32C, the self-cleavage was 0.0741.

Regarding U7C U14A, the self-cleavage came to 0.808.

Turning to G15C A43G, the self-cleavage was 0.11.

Consider C46G U55A, for which the self-cleavage is 0.142.

As to U2G G25U, the self-cleavage came to 0.359.

In the case of C16G G40U, the self-cleavage is 0.173.

Take A23G U60C: the self-cleavage came out at 0.924.

On to U7C A59G, for which the self-cleavage was determined as 0.088.

Take G21C U63G: the self-cleavage came out at 0.191.

Take C12A U53A: the self-cleavage turned out to be 0.785.

Values taken from the RNAGym collection of RNA variant scans (doi:10.7554/elife.80360).
